In paper PMC3678023 (Journal of Molecular Biology, 2013):

What was measured:
[1] = system: thermostabilised SERT mutants SAH6 and SAH7; assay: Competition binding, statements covering both thermostabilised mutants; design: species or system rat; details: over SAH6 and SAH7
Description: The samples were incubated for 2 h at 30 °C and then filtered on 96-well glass fibre plates (Millipore) pre-treated with 200 μl of 0.1% polyethyleneimine. The filters were washed three times with 200 μl ice-cold SERT buffer [100 mM NaCl and 20 mM Tris (pH 7.4)], dried for 1 h at 50 °C prior to liquid scintillation counting. Competition binding assays were performed as above, but a range of concentrations of unlabelled ligand was included and a final concentration of 0.2 nM [^125I]RTI55 was used.

[2] = Description: Thermostability assays usually involved adding the radioligand to detergent-solubilised membrane proteins,[9] but the only detergent that SERT was stable in was digitonin,[34] which is unsuitable for crystallography. Therefore, a different assay where an inhibitor was used to stabilise the transporter was developed. This entailed adding [^125I]RTI55 to the T-REx-SERT cells followed by detergent solubilisation and then the thermostability assay (heating samples at various temperatures for 30 min). The apparent Tm was defined as the temperature where 50% of the transporter still bound the radiolabelled inhibitor (Fig. S2).
The thermostability of detergent-solubilised [^125I]RTI55-bound SERT was determined as previously described for GPCRs.[5,6,8,9] Briefly, cells containing unpurified SERT were incubated with 1 nM [^125I]RTI55 for 30 min on ice, which were then solubilised with detergent on ice for 30 min before incubation at varying temperatures for 30 min. The radioligand bound to the membrane protein was separated from free radioligand by centrifugal gel filtration and the radioligand bound to the eluted transporter measured by liquid scintillation counting.

[3] = system: T-REx-293 cells expressing SAH6-GFP, SAH7-GFP or SERT-GFP; assay: [3H]5HT uptake assay in stable T-REx cell lines; type: cell-based; details: tetracycline-induced stable cell lines, 2 μM [3H]5HT, 25 °C, 3 min
Description: [^3H]5HT was released by rupturing the cells with 2% SDS, which was quantified by liquid scintillation counting.

Molecule | Lower affinity versus wild-type transporter [1] | Apparent Tm ([2]; [125I]RTI55-bound, solubilised in 0.1% DDM, heated 30 min) [°C] | Transporter remaining functional after heating ([2]; single-temperature assay, 28 °C for 30 min) | [3H]5HT transport [3]
ibogaine | up to 90 fold | – | – | –
wild-type SERT: rat serotonin transporter, wild type (protein, UniProt P31652 1-630, looked up) Sodium-dependent serotonin …: METTPLNSQKVLSECKDREDCQENGVLQKGVPTTADRAEPSQISNGYSAVPSTSAGDEASHSIPAATTTLVAEIRQGERETWGKKMDFLLSVIGYAVDLGNIWRFPYICYQNGGGAFLLPYTIMAIFGGIPLFYMELALGQYHRNGCISIWRKICPIFKGIGYAICIIAFYIASYYNTIIAWALYYLISSLTDRLPWTSCTNSWNTGNCTNYFAQDNITWTLHSTSPAEEFYLRHVLQIHQSKGLQDLGTISWQLTLCIVLIFTVIYFSIWKGVKTSGKVVWVTATFPYIVLSVLLVRGATLPGAWRGVVFYLKPNWQKLLETGVWVDAAAQIFFSLGPGFGVLLAFASYNKFNNNCYQDALVTSVVNCMTSFVSGFVIFTVLGYMAEMRNEDVSEVAKDAGPSLLFITYAEAIANMPASTFFAIIFFLMLITLGLDSTFAGLEGVITAVLDEFPHIWAKRREWFVLIVVITCVLGSLLTLTSGGAYVVTLLEEYATGPAVLTVALIEAVAVSWFYGITQFCSDVKEMLGFSPGWFWRICWVAISPLFLLFIICSFLMSPPQLRLFQYNYPHWSIVLGYCIGMSSVICIPTYIIYRLISTPGTLKERIIKSITPETPTEIPCGDIRMNAV | – | 28 | approximately 40% | robust transport
